In publication PMC10372695 (Proceedings of the National Academy of Sciences of the …, 2023):
“And” between values parts separate entries of the source, which are not always exact repeats. Identical values can stand only once. Like-named read-outs stand apart in the source and are kept apart here.

Tests used:
[1] = target: the molecule itself; assay: single-molecule fluorescence microscopy with optical tweezers
[2] = target: the molecule itself; assay: as above; remark: listed apart in the source

B1: C-terminal GFP-tagged SV40 LT (natural protein)
chain: MDKVLNREESLQLMDLLGLERSAWGNIPLMRKAYLKKCKEFHPDKGGDEEKMKKMNTLYKKMEDGVKYAHQPDFGGFWDATEIPTYGTDEWEQWWNAFNEENLFCSEEMPSSDDEATADSQHSTPPKKKRKVEDPKDFPSELLSFLSHAVFSNRTLACFAIYTTKEKAALLYKKIMEKYSVTFISRHNSYNHNILFFLTPHRHRVSAINNYAQKLCTFSFLICKGVNKEYLMYSALTRDPFSVIEESLPGGLKEHDFNPEEAEETKQVSWKLVTEYAMETKCDDVLLLLGMYLEFQYSFEMCLKCIKKEQPSHYKYHEKHYANAAIFADSKNQKTICQQAVDTVLAKKRVDSLQLTREQMLTNRFNDLLDRMDIMFGSTGSADIEEWMAGVAWLHCLLPKMDSVVYDFLKCMVYNIPKKRYWLFKGPIDSGKTTLAAALLELCGGKALNVNLPLDRLNFELGVAIDQFLVVFEDVKGTGGESRDLPSGQGINNLDNLRDYLDGSVKVNLEKKHLNKRTQIFPPGIVTMNEYSVPKTLQARFVKQIDFRPKDYLKHCLERSEFLLEKRIIQSGIALLLMLIWYRPVAEFAQSIQSRIVEWKERLDKEFSLSVYQKMKFNVAMGIGVLDWLRNSDDDDEDSQENADKNEDGGEKNMEDSGHETGIDSQSQGSFQAPQSSQSVHDHNQPYHICRGFTCFKKPPTPPPEPET
- stoichiometry N [1]: 6 and 12
- stoichiometry N [2]: 3 and 4 and 5
